Source: publication doi:10.1101/2021.07.16.452612

Biological target: Recombinant wild-type mouse talin1 fragment R11 (residues 1,974–2,140) (mouse) (UniProt P26039)
Experiment: ITC

Chain of UniProt P26039 (P26039 1974-2140): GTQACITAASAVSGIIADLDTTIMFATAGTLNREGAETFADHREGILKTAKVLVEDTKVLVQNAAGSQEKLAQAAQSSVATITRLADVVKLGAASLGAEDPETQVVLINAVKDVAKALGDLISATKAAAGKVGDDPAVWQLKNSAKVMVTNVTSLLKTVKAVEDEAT

tensin3 H1 peptide (from UniProt Q68CZ2 692-712)
Kd: 17 µM
dH: 4.8 kcal/mol
